Experimental data reported in article PMC11574045, “A cofactor-induced repressive type of transcription factor condensation can be induced by synthetic peptides to suppress tumorigenesis” (The EMBO Journal, 2024).

Each molecule was assayed on HEK293FT cells transfected with TF library (assay: Screening of TF condensates based on fluorescent puncta). Settings: Figure 1B numerical data; TF library screen, one value per transcriptional factor.
Assay type: cell-based
Procedure, shortened: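 TF plasmids (final 1.6 μg/ml) reverse-transfected with PEI (4.8 μg/ml) into HEK293FT cells; after 60 h, cells cultured ±glucose for 12 h, fixed in 4% PFA and immunostained for Flag or GAL4 tags with Alexa 488 secondaries. Puncta scored by automated imaging of 50 random fields per well.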

| Molecule | Z score of condensed fraction |
| --- | --- |
| ZBTB21 (protein, UniProt Q9ULJ3 1-1066, looked up) Zinc finger and BTB …: MEGLLHYINPAHAISLLSALNEERLKGQLCDVLLIVGDQKFRAHKNVLAASSEYFQSLFTNKENESQTVFQLDFCEPDAFDNVLNYIYSSSLFVEKSSLAAVQELGYSLGISFLTNIVSKTPQAPFPTCPNRKKVFVEDDENSSQKRSVIVCQSRNEAQGKTVSQNQPDVSHTSRPSPSIAVKANTNKPHVPKPIEPLHNLSLTEKSWPKDSSVVYAKSLEHSGSLDDPNRISLVKRNAVLPSKPLQDREAMDDKPGVSGQLPKGKALELALKRPRPPVLSVCSSSETPYLLKETNKGNGQGEDRNLLYYSKLGLVIPSSGSGSGNQSIDRSGPLVKSLLRRSLSMDSQVPVYSPSIDLKSSQGSSSVSSDAPGNVLCALSQKSSLKDCSEKTALDDRPQVLQPHRLRSFSASQSTDREGASPVTEVRIKTEPSSPLSDPSDIIRVTVGDAATTAAASSSSVTRDLSLKTEDDQKDMSRLPAKRRFQADRRLPFKKLKVNEHGSPVSEDNFEEGSSPTLLDADFPDSDLNKDEFGELEGTRPNKKFKCKHCLKIFRSTAGLHRHVNMYHNPEKPYACDICHKRFHTNFKVWTHCQTQHGIVKNPSPASSSHAVLDEKFQRKLIDIVREREIKKALIIKLRRGKPGFQGQSSSQAQQVIKRNLRSRAKGAYICTYCGKAYRFLSQFKQHIKMHPGEKPLGVNKVAKPKEHAPLASPVENKEVYQCRLCNAKLSSLLEQGSHERLCRNAAVCPYCSLRFFSPELKQEHESKCEYKKLTCLECMRTFKSSFSIWRHQVEVHNQNNMAPTENFSLPVLDHNGDVTGSSRPQSQPEPNKVNHIVTTKDDNVFSDSSEQVNFDSEDSSCLPEDLSLSKQLKIQVKEEPVEEAEEEAPEASTAPKEAGPSKEASLWPCEKCGKMFTVHKQLERHQELLCSVKPFICHVCNKAFRTNFRLWSHFQSHMSQASEESAHKESEVCPVPTNSPSPPPLPPPPPLPKIQPLEPDSPTGLSENPTPATEKLFVPQESDTLFYHAPPLSAITFKRQFMCKLCHRTFKTAFSLWSHEQTHN | -0.7871 |
| ZBTB26 (protein, UniProt Q9HCK0 1-441, looked up) Zinc finger and BTB …: MSERSDLLHFKFENYGDSMLQKMNKLREENKFCDVTVLIDDIEVQGHKIVFAAGSPFLRDQFLLNDSREVKISILQSSEVGRQLLLSCYSGVLEFPEMELVNYLTAASFLQMSHIVERCTQALWKFIKPKQPMDSKEGCEPQSASPQSKEQQGDARGSPKQDSPCIHPSEDSMDMEDSDIQIVKVESIGDVSEVRSKKDQNQFISSEPTALHSSEPQHSLINSTVENRVSEIEQNHLHNYALSYTGSDNIIMASKDVFGPNIRGVDKGLQWHHQCPKCTRVFRHLENYANHLKMHKLFMCLLCGKTFTQKGNLHRHMRVHAGIKPFQCKICGKTFSQKCSLQDHLNLHSGDKPHKCNYCDMVFAHKPVLRKHLKQLHGKNSFDNANERNVQDLTVDFDSFACTTVTDSKGCQPQPDATQVLDAGKLAQAVLNLRNDSTCVN | 0.2152 |
| ZBTB37 (protein, UniProt Q5TC79 1-503, looked up) Zinc finger and BTB …: MEKGGNIQLEIPDFSNSVLSHLNQLRMQGRLCDIVVNVQGQAFRAHKVVLAASSPYFRDHMSLNEMSTVSISVIKNPTVFEQLLSFCYTGRICLQLADIISYLTAASFLQMQHIIDKCTQILEGIHFKINVAEVEAELSQTRTKHQERPPESHRVTPNLNRSLSPRHNTPKGNRRGQVSAVLDIRELSPPEESTSPQIIEPSSDVESREPILRINRAGQWYVETGVADRGGRSDDEVRVLGAVHIKTENLEEWLGPENQPSGEDGSSAEEVTAMVIDTTGHGSVGQENYTLGSSGAKVARPTSSEVDRFSPSGSVVPLTERHRARSESPGRMDEPKQPSSQVEESAMMGVSGYVEYLREQEVSERWFRYNPRLTCIYCAKSFNQKGSLDRHMRLHMGITPFVCRMCGKKYTRKDQLEYHIRKHTGNKPFHCHVCGKSFPFQAILNQHFRKNHPGCIPLEGPHSISPETTVTSRGQAEEESPSQEETVAPGEAVQGSVSTTGPD | 0.3942 |
